Reference: IntAct's records for PubMed 16203728

B1: Erbin (Homo sapiens), Q96RT1-2 (parent)
chain: MTTKRSLFVRLVPCRCLRGEEETVTTLDYSHCSLEQVPKEIFTFEKTLEELYLDANQIEELPKQLFNCQSLHKLSLPDNDLTTLPASIANLINLRELDVSKNGIQEFPENIKNCKVLTIVEASVNPISKLPDGFSQLLNLTQLYLNDAFLEFLPANFGRLTKLQILELRENQLKMLPKTMNRLTQLERLDLGSNEFTEVPEVLEQLSGLKEFWMDANRLTFIPGFIGSLKQLTYLDVSKNNIEMVEEGISTCENLQDLLLSSNSLQQLPETIGSLKNITTLKIDENQLMYLPDSIGGLISVEELDCSFNEVEALPSSIGQLTNLRTFAADHNYLQQLPPEIGSWKNITVLFLHSNKLETLPEEMGDMQKLKVINLSDNRLKNLPFSFTKLQQLTAMWLSDNQSKPLIPLQKETDSETQKMVLTNYMFPQQPRTEDVMFISDNESFNPSLWEEQRKQRAQVAFECDEDKDEREAPPREGNLKRYPTPYPDELKNMVKTVQTIVHRLKDEETNEDSGRDLKPHEDQQDINKDVGVKTSESTTTVKSKVDEREKYMIGNSVQKISEPEAEISPGSLPVTANMKASENLKHIVNHDDVFEESEELSSDEEMKMAEMRPPLIETSINQPKVVALSNNKKDDTKETDSLSDEVTHNSNQNNSNCSSPSRMSDSVSLNTDSSQDTSLCSPVKQTHIDINSKIRQEDENFNSLLQNGDILNSSTEEKFKAHDKKDFNLPEYDLNVEERLVLIEKSVDSTATADDTHKLDHINMNLNKLITNDTFQPEIMERSKTQDIVLGTSFLSINSKEETEHLENGNKYPNLESVNKVNGHSEETSQSPNRTEPHDSDCSVDLGISKSTEDLSPQKSGPVGSVVKSHSITNMEIGGLKIYDILSDNGPQQPSTTVKITSAVDGKNIVRSKSATLLYDQPLQVFTGSSSSSDLISGTKAIFKFDSNHNPEEPNIIRGPTSGPQSAPQIYGPPQYNIQYSSSAAVKDTLWHSKQNPQIDHASFPPQLLPRSESTENQSYAKHSANMNFSNHNNVRANTAYHLHQRLGPARHGEMWAISPNDRLIPAVTRSTIQRQSSVSSTASVNLGDPGSTRRAQIPEGDYLSYREFHSAGRTPPMMPGSQRPLSARTYSIDGPNASRPQSARPSINEIPERTMSVSDFNYSRTSPSKRPNARVGSEHSLLDPPGKSKVPRDWREQVLRHIEAKKLEKMPLSNGQMGQPLRPQANYSQIHHPPQASVARHPSREQLIDYLMLKVAHQPPYTQPHCSPRQGHELAKQEIRVRVEKDPELGFSISGGVGGRGNPFRPDDDGIFVTRVQPEGPASKLLQPGDKIIQANGYSFINIEHGQAVSLLKTFQNTVELIIVREVSS

Variants of: B1
Conditions: with nod2_human NOD2, Q9HC29
nod2_human NOD2, Q9HC29, sequence (Q9HC29 whole entry): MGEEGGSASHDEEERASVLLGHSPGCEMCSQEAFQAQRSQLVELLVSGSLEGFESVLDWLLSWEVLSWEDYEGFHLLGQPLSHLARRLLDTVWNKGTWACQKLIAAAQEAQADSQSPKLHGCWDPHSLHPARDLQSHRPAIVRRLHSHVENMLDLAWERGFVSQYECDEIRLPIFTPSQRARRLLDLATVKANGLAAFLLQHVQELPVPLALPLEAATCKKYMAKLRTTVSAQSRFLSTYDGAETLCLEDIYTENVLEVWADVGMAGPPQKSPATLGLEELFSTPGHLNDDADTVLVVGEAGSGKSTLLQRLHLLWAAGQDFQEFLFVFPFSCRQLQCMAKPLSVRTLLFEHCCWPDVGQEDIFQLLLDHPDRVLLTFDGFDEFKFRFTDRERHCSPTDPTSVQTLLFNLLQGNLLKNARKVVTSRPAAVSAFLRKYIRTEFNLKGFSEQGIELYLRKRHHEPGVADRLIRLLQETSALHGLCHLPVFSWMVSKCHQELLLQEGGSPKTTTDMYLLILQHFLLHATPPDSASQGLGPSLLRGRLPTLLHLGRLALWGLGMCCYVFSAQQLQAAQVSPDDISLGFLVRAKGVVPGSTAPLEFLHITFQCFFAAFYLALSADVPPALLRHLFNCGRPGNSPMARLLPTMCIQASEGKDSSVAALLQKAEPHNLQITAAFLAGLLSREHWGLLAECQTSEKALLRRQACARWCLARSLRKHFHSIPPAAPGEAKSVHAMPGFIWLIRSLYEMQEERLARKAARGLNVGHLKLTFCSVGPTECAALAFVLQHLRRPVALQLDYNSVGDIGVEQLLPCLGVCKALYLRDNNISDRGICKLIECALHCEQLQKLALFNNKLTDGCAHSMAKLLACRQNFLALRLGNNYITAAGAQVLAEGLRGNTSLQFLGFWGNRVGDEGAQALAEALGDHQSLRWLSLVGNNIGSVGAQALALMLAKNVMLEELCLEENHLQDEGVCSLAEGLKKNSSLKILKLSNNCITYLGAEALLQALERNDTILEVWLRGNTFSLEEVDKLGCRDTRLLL

Variant	effect of a mutation on the interaction
P315L	decreasing interaction
